In assay [1] the target is 2D8 scFv (anti-WTE)-CD8 hinge region-CD28a-CD28b-CD137-CD3ζ chimeric antigen receptor on T lymphocytes (human) (UniProt P01732). The experiment in a line: cell-based or functional assay.
Another assay concerns the target human EGFRvIII (human) (UniProt P00533). Put plainly: cell-based or functional assay.

Chain of UniProt P01732 (P01732 other isoform, or with tags, fused parts or gaps mutant limits assumed): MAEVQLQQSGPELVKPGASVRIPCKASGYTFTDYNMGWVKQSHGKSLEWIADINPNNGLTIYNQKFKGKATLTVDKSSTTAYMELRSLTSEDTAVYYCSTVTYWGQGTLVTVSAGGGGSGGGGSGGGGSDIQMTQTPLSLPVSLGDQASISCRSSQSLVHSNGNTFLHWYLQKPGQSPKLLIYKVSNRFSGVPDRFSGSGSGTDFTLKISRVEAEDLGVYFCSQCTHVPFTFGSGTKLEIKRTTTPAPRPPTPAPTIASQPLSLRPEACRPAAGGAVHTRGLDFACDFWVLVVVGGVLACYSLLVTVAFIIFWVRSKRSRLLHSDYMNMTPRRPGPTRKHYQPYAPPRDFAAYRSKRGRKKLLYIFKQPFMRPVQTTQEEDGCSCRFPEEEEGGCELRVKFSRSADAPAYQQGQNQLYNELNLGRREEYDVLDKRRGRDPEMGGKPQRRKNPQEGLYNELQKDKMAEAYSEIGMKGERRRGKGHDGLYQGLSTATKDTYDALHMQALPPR

In assay [1], “WTE polypeptide (free) (from UniProt P00533 1189-1210)” showed a reduction of WTE-CH12-mediated cytotoxicity of CAR+ T cells on U87MG-EGFRvIII, free WTE polypeptide at 2-fold molar concentration of WTE-CH12, against Experimental group 1 of 31.1% and a reduction of WTE-CH12-mediated cytotoxicity of CAR+ T cells on U87MG-EGFRvIII, free WTE polypeptide at 20-fold molar concentration of WTE-CH12, against Experimental group 1 of 87.8%.

B1: anti-human EGFRvIII WTE-CH12 antibody (antibody, V domains shown)
VH: DVQLQESGPGLVKPSQSLSLTCTVTAYSVTSDYAWNWIRQFPGNKLEWMGYISYSGTTRYNPSLKSRISITRDTSKNQFFLQLNSMTAEDTATYYCSRQGRGFPYWGQGTLVTVSA
VL: DILMTQSPSSMSVSLGDTVSITCHASQDINSNIGWLQQKPGKSFKGLIYHGTNLEDGVPSRFSGSGSGADYSLTISSLESEDFADYYCVQYAQFPWTFGGGTKLEIKR
In the assay with human EGFRvIII (human), B1 gave a cytotoxicity % (LDH release) of anti-WTE CAR+ T cells on Huh-7-EGFRvIII cells at 10^4 ng/ml WTE-CH12, effector:target 3:1 of 93% and a cytotoxicity % (LDH release) of anti-WTE CAR+ T cells on U87MG-EGFRvIII cells at 10^4 ng/ml WTE-CH12, effector:target 10:1 of 98.3%.
